From the supplement of paper PMC10567573

B1: NCK2 (parent)
chain: YTGPSSSGRFAGREWYYGNVTRHQ

Variants of: B1
Assay: protein stability index of a GFP-peptide fusion (GPS, HEK-293T) (PSI 1-6); higher = more stable
Details: c terminus: a fixed tail appended
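Note: lentivirally expressed fusions sorted by FACS into six bins by GFP to DsRed ratio, PSI derived from sequencing read proportions per bin multiplied by bin number.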

Protein stability index of substitutions, site by site:
G12: T 2.17; K 2.32; E 1.49; P 1.42; D 2.44; F 2.45; V 1.84; I 2.66; A 1.73; Y 2.1; L 2.25; H 2.26; R 1.98; M 1.75; C 2.81; N 3.14; S 1.52; Q 2.09; W 1.9
S6: T 1.93; G 1.54; P 1.66; N 1.78; H 2.15; M 2.35; Q 2.22; Y 2.13; F 3.15; I 1.96; K 2.35; L 1.77; R 1.46; V 1.58; E 1.49
G8: Q 1.64; R 2.3; V 1.48; A 1.25; C 2.32; L 3.02; P 1.66; E 2.32; K 1.82; D 2.65; N 1.71; S 2.22; M 1.68; I 1.59; Y 2.22; F 2.04; H 1.51; T 1.87
Q24: I 2.01; K 2.42; H 1.85; M 2.44; D 2.51; A 1.96; E 1.41; C 2.61; L 2.07; F 1.59; G 1.56
E14: I 1.58; K 2.03; S 1.67; R 2.58; V 2.56; N 1.78; M 1.64; C 3.32; P 1.87; H 2.69; W 1.92; F 1.95; A 1.57; Q 2.09; Y 1.3; D 1.4; L 1.68; G 1.69
G18: Q 2.23; Y 2.03; W 2.18; R 2.44; M 1.55; K 2.64; V 2.68; S 2.99; T 1.04; N 2.49; C 2.35; L 3; E 1.44; A 1.46; F 1.6; D 2.39; P 1.89; I 1.74; H 2.11
S7: T 2.68; P 2.18; N 1.47; E 2.32; A 1.71; K 2.08; G 1.82; Q 2; H 1.85; L 2.11; R 1.82; M 1.58; C 3.63; D 1.59; Y 2.02; F 1.59; V 1.46
R13: A 1.61; N 1.91; H 2.75; C 3.48; T 1.81; P 1.97; V 2.44; L 1.7; F 2.33; E 2; Q 2.44; K 2.02; M 1.63; S 2.03; G 2.21; D 2.09; W 2.01; Y 1.94; I 2.64
N19: W 3.18; A 2.09; T 2.44; F 2.01; P 2.58; M 3.08; Q 3.23; L 2.05; I 1.53; Y 1.91; E 1.53; H 2.12; S 1.44; R 2.53; K 1.38; C 1.55; G 1.63; D 1.76; V 1.61
F10: D 1.93; T 2.2; K 2.25; I 1.89; R 1.66; A 2.14; Y 1.64; Q 1.84; C 1.44; M 2.1; W 3.07; V 2.13; E 2.95; P 2.42; G 2.35; H 2; L 1.44; S 2.11; N 2.13
H23: W 2.71; V 1.56; I 2; A 2.86; T 1.46; Q 1.31; D 2.52; P 1.23; R 1.53; M 1.56; G 1.88; L 2.81; Y 1.42; C 1.07; E 1.47; N 2.09; S 1.79; F 1.79; K 2.33
Y16: E 2.26; A 2.24; R 1.98; N 2.13; I 2.19; W 2.29; S 2.33; L 1.59; V 1.5; Q 2.37; K 2.06; C 2.03; F 2.26; G 1.81; M 1.61; D 2.27; H 2.03; T 2.45
Y17: D 2.64; R 2.19; V 1.89; Q 1.97; G 2.83; S 2.44; E 2.56; P 1.76; T 1.36; C 1.77; H 2.06; A 2.11; N 1.59; K 1.91; M 1.87; L 1.58; I 3.41
V20: C 2.13; Y 2.44; N 1.98; A 1.73; S 1.66; F 1.59; T 1.75; L 1.88; P 1.81; K 2.2; G 2.57; R 2.42; D 2.92; Q 1.83; H 2.34; E 1.67; I 2.71; M 1.85
R9: Y 1.73; E 2.5; N 1.69; D 1.81; Q 1.81; V 1.85; C 2.09; P 2.14; F 4.5; S 1.38; A 1.56; K 1.46; G 2.17; I 3.13; H 1.45; T 1.44; M 3.36
W15: V 2.36; Y 2.23; F 2.19; L 1.77; I 1.71; Q 2.36; N 2.73; C 2.19; D 2.83; P 2.36; H 2.66; R 2.35; M 2.18; T 2.28; G 2.82; E 2.52; S 1.5; K 2.22; A 2.49
R22: M 1.79; Q 2.17; Y 2.17; K 1.46; D 1.65; G 2.62; A 2; W 1.61; N 2.35; P 1.14; H 1.33; C 1.7; V 2.18; E 1.85; L 1.56; F 2.65
A11: G 2.44; W 3.03; Y 2.2; S 2.2; H 2; D 1.95; L 2.02; K 1.32; R 1.85; E 2.04; Q 2.21; I 1.55; F 4.19; P 1.25; N 2.34; M 1.48; T 2.3; V 1.62
T21: S 2.13; K 1.74; N 2.4; V 2.64; F 2.53; D 1.76; R 1.68; P 2.06; C 2.37; L 2.34; H 1.9; M 2.29; G 1.45; I 1.87; Q 1.78; Y 1.91; A 1.84; E 2.05
